Measurements taken from patent publication US20020082273A1, “Agents for use in the treatment of alzheimer's disease” (priority 1998, published 2002).

System: Aβ1-40 or Aβ1-42 SDS-resistant polymers
Assay: Dissolution of in vitro Cu^2+-induced SDS-resistant Aβ polymers
Format: biochemical, human

B1: proteinase K: protease (protein, UniProt P06873 106-384, looked up)
Proteinase K: AAQTNAPWGLARISSTSPGTSTYYYDESAGQGSCVYVIDTGIEASHPEFEGRAQMVKTYYYSSRDGNGHGTHCAGTVGSRTYGVAKKTQLFGVKVLDDNGSGQYSTIIAGMDFVASDKNNRNCPKGVVASLSLGGGYSSSVNSAAARLQSSGVMVAVAAGNNNADARNYSPASEPSVCTVGASDRYDRRSSFSNYGSVLDIFGPGTSILSTWIGGSTRSISGTSMATPHVAGLAAYLMTLGKTTAASACRYIADTANKGDLSNIPFGTVNLLAYNNYQA
degradation of SDS-resistant Aβ polymers: complete degradation
